Among the targets are DLA2 WT (MST) (Chlamydomonas reinhardtii, UniProt A0A2K3DW88 32-494); DLA2 ΔCat 462 (Chlamydomonas reinhardtii, UniProt A0A2K3DW88 32-461); DLA2 ΔE3B (Chlamydomonas reinhardtii, UniProt A0A2K3DW88 32-184+=VD+224-494, internal_change); DLA2 ΔLip (Chlamydomonas reinhardtii, UniProt A0A2K3DW88 116-494); DLA2 ΔCat (Chlamydomonas reinhardtii, UniProt A0A2K3DW88 32-269); DLA2 ΔCat 450 (Chlamydomonas reinhardtii, UniProt A0A2K3DW88 32-449); DLA2 ΔCat 394 (Chlamydomonas reinhardtii, UniProt A0A2K3DW88 32-393); DLA2 ΔCat 315 (Chlamydomonas reinhardtii, UniProt A0A2K3DW88 32-314).

Test in all cases: MST
For a further data set, the target named is T1, PratA (Synechocystis sp. PCC 6803, UniProt P73091 39-383).
T1 sequence: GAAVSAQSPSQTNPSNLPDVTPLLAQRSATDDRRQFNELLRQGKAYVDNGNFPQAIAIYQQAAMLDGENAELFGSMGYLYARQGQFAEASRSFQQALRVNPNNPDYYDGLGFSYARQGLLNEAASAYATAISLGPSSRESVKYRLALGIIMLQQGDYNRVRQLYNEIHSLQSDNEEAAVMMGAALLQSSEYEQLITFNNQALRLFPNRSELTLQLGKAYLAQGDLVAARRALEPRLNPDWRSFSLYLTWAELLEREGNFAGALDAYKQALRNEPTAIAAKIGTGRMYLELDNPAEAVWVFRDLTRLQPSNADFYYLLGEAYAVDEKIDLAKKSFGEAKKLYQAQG

Turning to UUUACGGAGAAAUUAAAACUUUCCCCCCCCCCCCAUAUGACCAUGGAUC (ssRNA) [psbA 5'-UTR C-stretch probe], the Kd – broadly, the constant that tells how readily two partners part at equilibrium – with DLA2 WT (MST) is 248 ± 54 nM; with DLA2 ΔCat 462, 625 ± 75 nM; in the data set with DLA2 ΔE3B, 244 ± 43 nM.

Consider UUUACGGAGAAAUUAAAACUUUAAAAAAAUUAACAUAUGACCAUGGAUC (ssRNA) [psbA 5'-UTR probe native], for which the Kd was 106 ± 24 nM in the data set with DLA2 WT (MST); 427 ± 55 nM with DLA2 ΔCat 462; 107 ± 20 nM with DLA2 ΔLip; 241 ± 21 nM with DLA2 ΔE3B; 911 ± 60 nM in the data set with DLA2 ΔCat; 466 ± 65 nM in the data set with DLA2 ΔCat 450. In addition, the Kd with DLA2 ΔCat 394 turned out to be 558 ± 77 nM; in the data set with DLA2 ΔCat 315, 607 ± 82 nM. Further, in the data set with PratA, the binding result was “no binding”.

Values taken from doi:10.1101/831339.
